B1: Pyridoxine-5'-phosphate oxidase (Homo sapiens), Q9NVS9 (parent)
chain: MTCWLRGVTATFGRPAEWPGYLSHLCGRSAAMDLGPMRKSYRGDREAFEETHLTSLDPVKQFAAWFEEAVQCPDIGEANAMCLATCTRDGKPSARMLLLKGFGKDGFRFFTNFESRKGKELDSNPFASLVFYWEPLNRQVRVEGPVKKLPEEEAECYFHSRPKSSQIGAVVSHQSSVIPDREYLRKKNEELEQLYQDQEVPKPKSWGGYVLYPQVMEFWQGQTNRLHDRIVFRRGLPTGDSPLGPMTHRGEEDWLYERLAP
B2: Carbonic anhydrase-related protein (Homo sapiens), P35219 (parent)
chain: MADLSFIEDTVAFPEKEEDEEEEEEGVEWGYEEGVEWGLVFPDANGEYQSPINLNSREARYDPSLLDVRLSPNYVVCRDCEVTNDGHTIQVILKSKSVLSGGPLPQGHEFELYEVRFHWGRENQRGSEHTVNFKAFPMELHLIHWNSTLFGSIDEAVGKPHGIAIIALFVQIGKEHVGLKAVTEILQDIQYKGKSKTIPCFNPNTLLPDPLLRDYWVYEGSLTIPPCSEGVTWILFRYPLTISQLQIEEFRRLRTHVKGAELVEGCDGILGDNFRPTQPLSDRVIRAAFQ
partner: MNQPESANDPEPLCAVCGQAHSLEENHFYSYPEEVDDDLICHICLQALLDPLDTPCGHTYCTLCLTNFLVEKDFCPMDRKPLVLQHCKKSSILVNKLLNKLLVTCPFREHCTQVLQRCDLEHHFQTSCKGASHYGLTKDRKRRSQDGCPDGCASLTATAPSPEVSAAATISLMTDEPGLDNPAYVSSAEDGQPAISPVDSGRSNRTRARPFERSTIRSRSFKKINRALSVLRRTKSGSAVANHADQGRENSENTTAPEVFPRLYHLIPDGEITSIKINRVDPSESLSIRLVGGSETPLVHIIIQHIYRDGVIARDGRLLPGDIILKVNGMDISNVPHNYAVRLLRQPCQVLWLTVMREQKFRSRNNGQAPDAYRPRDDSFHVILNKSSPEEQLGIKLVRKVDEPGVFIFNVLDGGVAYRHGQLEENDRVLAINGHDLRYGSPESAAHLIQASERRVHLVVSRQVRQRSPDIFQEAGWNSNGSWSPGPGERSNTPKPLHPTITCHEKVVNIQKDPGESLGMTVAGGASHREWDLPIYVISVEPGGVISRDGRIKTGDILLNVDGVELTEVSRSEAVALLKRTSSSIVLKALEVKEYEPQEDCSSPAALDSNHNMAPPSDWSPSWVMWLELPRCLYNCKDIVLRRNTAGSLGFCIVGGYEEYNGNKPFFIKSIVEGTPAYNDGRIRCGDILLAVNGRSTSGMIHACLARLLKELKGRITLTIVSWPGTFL
B3: Progranulin (Homo sapiens), P28799 (parent)
chain: MWTLVSWVALTAGLVAGTRCPDGQFCPVACCLDPGGASYSCCRPLLDKWPTTLSRHLGGPCQVDAHCSAGHSCIFTVSGTSSCCPFPEAVACGDGHHCCPRGFHCSADGRSCFQRSGNNSVGAIQCPDSQFECPDFSTCCVMVDGSWGCCPMPQASCCEDRVHCCPHGAFCDLVHTRCITPTGTHPLAKKLPAQRTNRAVALSSSVMCPDARSRCPDGSTCCELPSGKYGCCPMPNATCCSDHLHCCPQDTVCDLIQSKCLSKENATTDLLTKLPAHTVGDVKCDMEVSCPDGYTCCRLQSGAWGCCPFTQAVCCEDHIHCCPAGFTCDTQKGTCEQGPHQVPWMEKAPAHLSLPDPQALKRDVPCDNVSSCPSSDTCCQLTSGEWGCCPIPEAVCCSDHQHCCPQGYTCVAEGQCQRGSEIVAGLEKMPARRASLSHPRDIGCDQHTSCPVGQTCCPSLGGSWACCQLPHAVCCEDRQHCCPAGYTCNVKARSCEKEVVSAQPATFLARSPHVGVKDVECGEGHFCHDNQTCCRDNRQGWACCPYRQGVCCADRRHCCPAGFRCAARGTKCLRREAPRWDAPLRDPALRQLL
partner: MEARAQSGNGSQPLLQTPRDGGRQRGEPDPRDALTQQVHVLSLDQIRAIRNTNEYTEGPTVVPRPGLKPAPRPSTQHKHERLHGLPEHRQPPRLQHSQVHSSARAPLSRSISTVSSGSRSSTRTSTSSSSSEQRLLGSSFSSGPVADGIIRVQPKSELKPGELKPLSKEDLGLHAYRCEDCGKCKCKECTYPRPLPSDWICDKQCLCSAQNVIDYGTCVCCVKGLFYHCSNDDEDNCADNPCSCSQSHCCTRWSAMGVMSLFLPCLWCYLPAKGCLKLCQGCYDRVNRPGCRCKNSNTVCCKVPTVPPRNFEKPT
B4: Glutathione S-transferase A2 (Homo sapiens), P09210 (parent)
chain: MAEKPKLHYSNIRGRMESIRWLLAAAGVEFEEKFIKSAEDLDKLRNDGYLMFQQVPMVEIDGMKLVQTRAILNYIASKYNLYGKDIKEKALIDMYIEGIADLGEMILLLPFSQPEEQDAKLALIQEKTKNRYFPAFEKVLKSHGQDYLVGNKLSRADIHLVELLYYVEELDSSLISSFPLLKALKTRISNLPTVKKFLQPGSPRKPPMDEKSLEESRKIFRF
partner: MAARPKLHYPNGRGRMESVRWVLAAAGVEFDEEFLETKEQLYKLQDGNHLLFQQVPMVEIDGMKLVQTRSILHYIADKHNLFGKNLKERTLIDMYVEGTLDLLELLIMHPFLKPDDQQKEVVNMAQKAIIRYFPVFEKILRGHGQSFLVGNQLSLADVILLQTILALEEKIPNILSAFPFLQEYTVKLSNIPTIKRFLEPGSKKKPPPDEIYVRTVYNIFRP
B5: EGF-containing fibulin-like extracellular matrix protein 1 (Homo sapiens), Q12805 (parent)
chain: MLKALFLTMLTLALVKSQDTEETITYTQCTDGYEWDPVRQQCKDIDECDIVPDACKGGMKCVNHYGGYLCLPKTAQIIVNNEQPQQETQPAEGTSGATTGVVAASSMATSGVLPGGGFVASAAAVAGPEMQTGRNNFVIRRNPADPQRIPSNPSHRIQCAAGYEQSEHNVCQDIDECTAGTHNCRADQVCINLRGSFACQCPPGYQKRGEQCVDIDECTIPPYCHQRCVNTPGSFYCQCSPGFQLAANNYTCVDINECDASNQCAQQCYNILGSFICQCNQGYELSSDRLNCEDIDECRTSSYLCQYQCVNEPGKFSCMCPQGYQVVRSRTCQDINECETTNECREDEMCWNYHGGFRCYPRNPCQDPYILTPENRCVCPVSNAMCRELPQSIVYKYMSIRSDRSVPSDIFQIQATTIYANTINTFRIKSGNENGEFYLRQTSPVSAMLVLVKSLSGPREHIVDLEMLTVSSIGTFRTSSVLRLTIIVGPFSF
partner: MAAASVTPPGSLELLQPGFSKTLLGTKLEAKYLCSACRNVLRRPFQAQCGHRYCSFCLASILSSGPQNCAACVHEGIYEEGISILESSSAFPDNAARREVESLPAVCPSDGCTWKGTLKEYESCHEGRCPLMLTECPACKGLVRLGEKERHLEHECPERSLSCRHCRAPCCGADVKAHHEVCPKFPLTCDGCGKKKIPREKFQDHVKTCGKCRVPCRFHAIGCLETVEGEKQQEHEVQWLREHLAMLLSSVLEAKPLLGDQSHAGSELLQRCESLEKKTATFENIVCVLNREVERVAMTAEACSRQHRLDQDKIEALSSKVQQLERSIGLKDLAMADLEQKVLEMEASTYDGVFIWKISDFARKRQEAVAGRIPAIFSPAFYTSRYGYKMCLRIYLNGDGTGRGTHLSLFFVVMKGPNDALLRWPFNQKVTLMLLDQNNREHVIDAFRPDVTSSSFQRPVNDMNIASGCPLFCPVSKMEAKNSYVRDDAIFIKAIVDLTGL
B6: PiggyBac transposable element-derived protein 1 (Homo sapiens), Q96JS3 (parent)
chain: MYEALPGPAPENEDGLVKVKEEDPTWEQVCNSQEGSSHTQEICRLRFRHFCYQEAHGPQEALAQLRELCHQWLRPEMHTKEQIMELLVLEQFLTILPKELQPCVKTYPLESGEEAVTVLENLETGSGDTGQQASVYIQGQDMHPMVAEYQGVSLECQSLQLLPGITTLKCEPPQRPQGNPQEVSGPVPHGSAHLQEKNPRDKAVVPVFNPVRSQTLVKTEEETAQAVAAEKWSHLSLTRRNLCGNSAQETVMSLSPMTEEIVTKDRLFKAKQETSEEMEQSGEASGKPNRECAPQIPCSTPIATERTVAHLNTLKDRHPGDLWARMHISSLEYAAGDITRKGRKKDKARVSELLQGLSFSGDSDVEKDNEPEIQPAQKKLKVSCFPEKSWTKRDIKPNFPSWSALDSGLLNLKSEKLNPVELFELFFDDETFNLIVNETNNYASQKNVSLEVTVQEMRCVFGVLLLSGFMRHPRREMYWEVSDTDQNLVRDAIRRDRFELIFSNLHFADNGHLDQKDKFTKLRPLIKQMNKNFLLYAPLEEYYCFDKSMCECFDSDQFLNGKPIRIGYKIWCGTTTQGYLVWFEPYQEESTMKVDEDPDLGLGGNLVMNFADVLLERGQYPYHLCFDSFFTSVKLLSALKKKGVRATGTIRENRTEKCPLMNVEHMKKMKRGYFDFRIEENNEIILCRWYGDGIISLCSNAVGIEPVNEVSCCDADNEEIPQISQPSIVKVYDECKEGVAKMDQIISKYRVRIRSKKWYSILVSYMIDVAMNNAWQLHRACNPGASLDPLDFRRFVAHFYLEHNAHLSD
partner: B5 partner

Variants of: B1
Conditions: with AGTRAP

Variant	effect of a mutation on the interaction
R229W	disrupting interaction strength
R95C	disrupting interaction strength
R95H	disrupting interaction strength
R116Q	with no effect

Variants of: B1
Conditions: with CMTM5, Q96DZ9-2
Chain of CMTM5, Q96DZ9-2 (Q96DZ9 other isoform, or with tags, fused parts or gaps): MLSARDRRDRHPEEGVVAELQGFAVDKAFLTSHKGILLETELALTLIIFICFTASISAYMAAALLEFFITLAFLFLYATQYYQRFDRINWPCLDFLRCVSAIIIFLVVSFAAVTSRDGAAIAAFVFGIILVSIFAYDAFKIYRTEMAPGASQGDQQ

Variant	effect of a mutation on the interaction
R229W	disrupting interaction strength
R95C	disrupting interaction strength
R95H	disrupting interaction strength
R116Q	with no effect

Variants of: B2
Conditions: with lnx1_human LNX1, Q8TBB1

Variant	effect of a mutation on the interaction
S100P	disrupting interaction strength

Variants of: B3
Conditions: with spy2_human SPRY2, O43597

Variant	effect of a mutation on the interaction
P248L	with no effect
P451L	disrupting interaction strength
R432C	disrupting interaction strength
A9D	disrupting interaction strength

Variants of: B4
Conditions: with gsta4_human GSTA4, O15217

Variant	effect of a mutation on the interaction
P110S	with no effect

Variants of: B5
Conditions: with traf2_human TRAF2, Q12933

Variant	effect of a mutation on the interaction
R345W	with no effect

Variants of: B6
Conditions: with traf2_human TRAF2, Q12933

Variant	effect of a mutation on the interaction
Q248E	with no effect
I678V	with no effect

Reference: IntAct's records for PubMed 25910212
